Measured values taken from US20230295638.

Legend:
[1] = biological target: constitutive Corelet construct PPID::FUSn::GFP::FTH1, where PPID=PDZ (UniProt P02794)
[2] = biological target: constitutive Corelet construct PPID::FUSn::GFP::FTH1, where PPID=PTB (UniProt P02794)

Substance | shikimate production [1] | shikimate production [2]
TAL1 C-terminally tagged with PDZ ligand | The case when all four enzymes are recruited through expression with PTB/PDZ tags (+) shows enhanced shikimate production compared to when certain enzymes are removed from the cluster through expression without fusion to PTB/PDZ tag (-). | –
TKL1 C-terminally tagged with PTB ligand | – | The case when all four enzymes are recruited through expression with PTB/PDZ tags (+) shows enhanced shikimate production compared to when certain enzymes are removed from the cluster through expression without fusion to PTB/PDZ tag (-).
